{"source": "patent US20080292760A1", "about": "“Semi-Solid Food Products and Methods For Their Production, Based on Inhibiting Amylase Starch Breakdown” (WAGENINGEN CENTRE FOR FOOD SCIENCES, priority 2004, published 2008)", "test": "amylase study: sensory rating of vanilla custard desserts with added amylase", "format": "in vivo, human", "method": "The role of salivary amylase in modifying texture sensations was evaluated in the following examples, in which the level of amylase activity was varied within subjects, rather than between subjects. Alpha-amylase was added in varying concentrations to starch and CMC (non-starch)-based vanilla custard desserts. Additionally, amylase activity was inhibited to various degrees by adding the pharmaceutical amylase inhibitor Acarbose (CAS nr. 56180-94-0) in various concentrations to the same test foods.\nEighteen subjects, 11 females and 7 males aged between 18 and 34 yrs, participated the ‘amylase study’ and 7 different subjects, all females aged between 39 and 56 yrs, participated in the ‘acarbose study’. The subjects participating in the latter study had been informed about acarbose and its possibly side effects if swallowed. To avoid these side effects, subjects expectorated rather than swallowed the acarbose samples. All subjects signed consent forms expressing their willingness to participate in the studies, and all had previously been screened for olfactory and taste disorders and had received extensive training in the description of sensory mouthfeel and afterfeel attributes for semi-solid foods. Testing took place at the sensory facilities of TNO-Nutrition and Food Research in Zeist, The Netherlands.\nFor the ‘amylase study’, two commercially available full-fat vanilla custard desserts (3 wt % fat AH vanille vla or “AH”, Albert Heijn Corp., Zaandam, The Netherlands; and 3 wt % fat Boerenland via or “BL”, Campina Corp., Woerden, The Netherlands) were used as the two starch-based vanilla custard desserts. For the ‘acarbose study’, Boerenland via was used again but the Albert Heijn via was replaced by a low-fat dairy custard (0.1 wt % fat Creamex, Creamex Corp., Rijkervoort, The Netherlands).\nIn both studies, the effect of amylase and acarbose on starch-based custards was compared with their effects on non-starch custards to verify amylase-starch interactions. A non-starch custard was produced using full-fat (3 wt %) commercially available milk (Campina Corp., Woerden, The Netherlands) and adding 0.85 wt % of sodium carboxy methylcellulose (or “CMC”) (Akuell AF 3295, Akzo Nobel Corp., Amersfoort, The Netherlands), 6.25 wt % of sugar and 0.33 wt % of vanilla powder. Yellow colorant (Egg yellow, Supercook, Leeds, United Kingdom) was added at 3.33 ml/l custard to match the color of the starch-based custards.\nFor the amylase study, a bacterial α-amylase (from Bacillus licheniformis, with 15 wt % NaCl and 25 wt % sucrose, Sigma Corp., Zwijndrecht, The Netherlands) was used to prepare amylase solutions at concentrations of 40, 160, and 640 units in 100 μl aliquots of water. This concentration range is similar to the range of individual amylase levels found across a group of young and healthy subjects (Engelen, unpublished results). The amylase concentrations, including a control of 0 units, were added to 5 ml samples of the starch-based custards. Only the highest concentration, 640 units, and the control were added to 5 ml samples of the CMC custard.\nPanelists were seated in sensory booths with appropriate ventilation and lighting. Testing took place over either 3 (‘amylase study’) or 1.5 (‘acarbose study’) sessions of 2 hours. Within each session, subjects were presented with 20 trials during which they received in the amylase study each of the three custards once with the various amounts of amylase and with two different processing instructions. Over the 3 sessions, each custard was presented 3 times in each condition. In the ‘acarbose study’, each of the three custards with various amounts of acarbose were presented twice in the first session, and once in the second half session. The stimulus presentation order was randomized per subject and per session. The trials were presented at an average rate of one trial per 5 minutes. A break separated the first and the second half of each session. […]", "key": {"[1]": {"details": "R, AH custard, amylase 40 units"}, "[2]": {"details": "R, AH custard, amylase 160 units"}, "[3]": {"details": "R, AH custard, amylase 640 units"}, "[4]": {"details": "R, BL custard, amylase 40 units"}, "[5]": {"details": "R, BL custard, amylase 160 units"}, "[6]": {"details": "R, BL custard, amylase 640 units"}, "[7]": {"details": "R, CMC custard, amylase 640 units"}, "[8]": {"details": "U, AH custard, amylase 40 units"}}}
{"molecule": "Amylase: bacterial α-amylase from Bacillus licheniformis, with 15 wt % NaCl and 25 wt % sucrose, Sigma Corp. (protein, UniProt P06278 30-512, looked up, formulated with NaCl and sucrose) Alpha-amylase: ANLNGTLMQYFEWYMPNDGQHWKRLQNDSAYLAEHGITAVWIPPAYKGTSQADVGYGAYDLYDLGEFHQKGTVRTKYGTKGELQSAIKSLHSRDINVYGDVVINHKGGADATEDVTAVEVDPADRNRVISGEHRIKAWTHFHFPGRGSTYSDFKWHWYHFDGTDWDESRKLNRIYKFQGKAWDWEVSNENGNYDYLMYADIDYDHPDVAAEIKRWGTWYANELQLDGFRLDAVKHIKFSFLRDWVNHVREKTGKEMFTVAEYWQNDLGALENYLNKTNFNHSVFDVPLHYQFHAASTQGGGYDMRKLLNSTVVSKHPLKAVTFVDNHDTQPGQSLESTVQTWFKPLAYAFILTRESGYPQVFYGDMYGTKGDSQREIPALKHKIEPILKARKQYAYGAQHDYFDHHDIVGWTREGDSSVANSGLAALITDGPGGAKRMYVGRQNAGETWHDITGNRSEPVVINSEGWGEFHVNGGSVSIYVQR", "values": [{"measurement": "decrease of creamy mouthfeel", "setting": "AH custard, amylase added", "value": "up to 25%"}, {"measurement": "airy-mo", "setting": "[1]", "value": 25}, {"measurement": "bitter/chem-fl", "setting": "[1]", "value": 30}, {"measurement": "creamy-af", "setting": "[1]", "value": 38}, {"measurement": "creamy-mo", "setting": "[1]", "value": 44}, {"measurement": "fatty-af", "setting": "[1]", "value": 29}, {"measurement": "heterogeneous-mo", "setting": "[1]", "value": 26}, {"measurement": "prickling-mo", "setting": "[1]", "value": 19}, {"measurement": "rough-af", "setting": "[1]", "value": 26}, {"measurement": "smooth-mo", "setting": "[1]", "value": 65}, {"measurement": "sticky-af", "setting": "[1]", "value": 28}, {"measurement": "temperature-mo", "setting": "[1]", "value": 38}, {"measurement": "thick-mo", "setting": "[1]", "value": 41}, {"measurement": "airy-mo", "setting": "[2]", "value": 25}, {"measurement": "bitter/chem-fl", "setting": "[2]", "value": 38}, {"measurement": "creamy-af", "setting": "[2]", "value": 35}, {"measurement": "creamy-mo", "setting": "[2]", "value": 37}, {"measurement": "fatty-af", "setting": "[2]", "value": 31}, {"measurement": "heterogeneous-mo", "setting": "[2]", "value": 29}, {"measurement": "prickling-mo", "setting": "[2]", "value": 20}, {"measurement": "rough-af", "setting": "[2]", "value": 25}, {"measurement": "smooth-mo", "setting": "[2]", "value": 62}, {"measurement": "sticky-af", "setting": "[2]", "value": 29}, {"measurement": "temperature-mo", "setting": "[2]", "value": 35}, {"measurement": "thick-mo", "setting": "[2]", "value": 38}, {"measurement": "airy-mo", "setting": "[3]", "value": 25}, {"measurement": "bitter/chem-fl", "setting": "[3]", "value": 44}, {"measurement": "creamy-af", "setting": "[3]", "value": 34}, {"measurement": "creamy-mo", "setting": "[3]", "value": 35}, {"measurement": "fatty-af", "setting": "[3]", "value": 29}, {"measurement": "heterogeneous-mo", "setting": "[3]", "value": 33}, {"measurement": "prickling-mo", "setting": "[3]", "value": 25}, {"measurement": "rough-af", "setting": "[3]", "value": 23}, {"measurement": "smooth-mo", "setting": "[3]", "value": 61}, {"measurement": "sticky-af", "setting": "[3]", "value": 29}, {"measurement": "temperature-mo", "setting": "[3]", "value": 38}, {"measurement": "thick-mo", "setting": "[3]", "value": 41}, {"measurement": "airy-mo", "setting": "[4]", "value": 28}, {"measurement": "bitter/chem-fl", "setting": "[4]", "value": 22}, {"measurement": "creamy-af", "setting": "[4]", "value": 35}, {"measurement": "creamy-mo", "setting": "[4]", "value": 43}, {"measurement": "fatty-af", "setting": "[4]", "value": 28}, {"measurement": "heterogeneous-mo", "setting": "[4]", "value": 24}, {"measurement": "prickling-mo", "setting": "[4]", "value": 17}, {"measurement": "rough-af", "setting": "[4]", "value": 28}, {"measurement": "smooth-mo", "setting": "[4]", "value": 63}, {"measurement": "sticky-af", "setting": "[4]", "value": 29}, {"measurement": "temperature-mo", "setting": "[4]", "value": 37}, {"measurement": "thick-mo", "setting": "[4]", "value": 41}, {"measurement": "airy-mo", "setting": "[5]", "value": 29}, {"measurement": "bitter/chem-fl", "setting": "[5]", "value": 32}, {"measurement": "creamy-af", "setting": "[5]", "value": 35}, {"measurement": "creamy-mo", "setting": "[5]", "value": 45}, {"measurement": "fatty-af", "setting": "[5]", "value": 30}, {"measurement": "heterogeneous-mo", "setting": "[5]", "value": 27}, {"measurement": "prickling-mo", "setting": "[5]", "value": 19}, {"measurement": "rough-af", "setting": "[5]", "value": 26}, {"measurement": "smooth-mo", "setting": "[5]", "value": 63}, {"measurement": "sticky-af", "setting": "[5]", "value": 29}, {"measurement": "temperature-mo", "setting": "[5]", "value": 37}, {"measurement": "thick-mo", "setting": "[5]", "value": 40}, {"measurement": "airy-mo", "setting": "[6]", "value": 25}, {"measurement": "bitter/chem-fl", "setting": "[6]", "value": 40}, {"measurement": "creamy-af", "setting": "[6]", "value": 37}, {"measurement": "creamy-mo", "setting": "[6]", "value": 37}, {"measurement": "fatty-af", "setting": "[6]", "value": 30}, {"measurement": "heterogeneous-mo", "setting": "[6]", "value": 32}, {"measurement": "prickling-mo", "setting": "[6]", "value": 23}, {"measurement": "rough-af", "setting": "[6]", "value": 26}, {"measurement": "smooth-mo", "setting": "[6]", "value": 64}, {"measurement": "sticky-af", "setting": "[6]", "value": 29}, {"measurement": "temperature-mo", "setting": "[6]", "value": 37}, {"measurement": "thick-mo", "setting": "[6]", "value": 38}, {"measurement": "airy-mo", "setting": "[7]", "value": 36}, {"measurement": "bitter/chem-fl", "setting": "[7]", "value": 45}, {"measurement": "creamy-af", "setting": "[7]", "value": 39}, {"measurement": "creamy-mo", "setting": "[7]", "value": 39}, {"measurement": "fatty-af", "setting": "[7]", "value": 36}, {"measurement": "heterogeneous-mo", "setting": "[7]", "value": 34}, {"measurement": "melting-mo", "setting": "[7]", "value": 35}, {"measurement": "prickling-mo", "setting": "[7]", "value": 25}, {"measurement": "rough-af", "setting": "[7]", "value": 21}, {"measurement": "smooth-mo", "setting": "[7]", "value": 47}, {"measurement": "sticky-af", "setting": "[7]", "value": 37}, {"measurement": "temperature-mo", "setting": "[7]", "value": 44}, {"measurement": "thick-mo", "setting": "[7]", "value": 49}, {"measurement": "vanilla-fl", "setting": "[7]", "value": 30}, {"measurement": "airy-mo", "setting": "[8]", "value": 25}, {"measurement": "bitter/chem-fl", "setting": "[8]", "value": 35}, {"measurement": "creamy-af", "setting": "[8]", "value": 36}, {"measurement": "creamy-mo", "setting": "[8]", "value": 44}]}
